From paper PMC9970984

Target: RNA polymerase II (RNAP II), endogenous
Assay: Co-IP (IP: myc, Western blot for RNA Pol II, band intensity printed below lanes)
Conditions: HCT116 cells transfected with myc-KAT8 WT or myc-KAT8 2KR plasmid; parent: 1.0

- ratio to parent: 3.5
Substance: myc-KAT8 (lysine acetyltransferase 8), wild type (from UniProt Q9H7Z6) K168R; K175R
